Two molecules from paper PMC9606039, “Molecular analysis of a public cross-neutralizing antibody response to SARS-CoV-2” (Cell Reports, 2022) can be followed below.

In this assay the target is receptor-binding domain (RBD) (residues 319-541) of the SARS-CoV-2 spike (S) protein (SARS-CoV-2, ancestral Wuhan-Hu-1 …, UniProt P0DTC2).

B1: XG005 (antibody, V domains shown)
VH: QVTLRESGPTLVKPKQTLTLTCTFSGFSLSTPGGGVGWIRQPPGKALEWLALIYWDDDKRYSPSLKSSLTITKDTSKNQVVLTMTNMDPVDTATYYCARLTAADTIFDCWGQGTLVTVSS
VL: QSALTQPASVSGSPGLSITISCTATSSDVGAYNYVSWYQQHPGQAPKLMIYDVSKRPSGVSNRFSGSKSANTASLTISGLQAEDEADYYCSSYTTTSVVFGGGTKLTVL
In the case of B1, the binding result is recorded as “binds”.

B2: XGv265 (antibody, V domains shown)
VH: QITLKESGPTLVKPTQTLTLTCNFSGFSLNTYGVGVGWIRQPPGKALEWLALIYWDGDERYGPFFKNKVTIAKDTSKNQVVLTMTNMDPVDTATYYCARHLIPTIFDYWGQGTLVTVSS
VL: QSALTQPASVSGSPGQSITISCTGTSSDVGGSNYVSWYQHHPDRAPKLLIYEVTNRPSGVSNRFSGSKSANTASLTISGLQAEDEADYYCSSYTTTSTHILFGGGTKLTV
As to B2, the binding result is reported as “binds”.
